# US20210269546A1
# Legend:
# [1] = biological target: human recombinant CD64 (Fc gamma receptor I), R&D Systems (human) (UniProt P12314); experiment: SPR (Biacore T200), construct captured on Protein A, soluble CD64 as analyte
# [2] = biological target: FcγRIIaH131 (cell surface CD32a, cells bearing the labeled receptor, TR-FRET) (UniProt P12318); experiment: TR-FRET competition (CisBio) on cells bearing the labeled receptor; competitor: labeled antibody
# [3] = biological target: FcγRIIb (on cells bearing the labeled receptor, TR-FRET) (UniProt P31994); experiment: as above
# Chain of FcγRIIb (on cells bearing the labeled receptor, TR-FRET) (P31994 43-310 limits assumed): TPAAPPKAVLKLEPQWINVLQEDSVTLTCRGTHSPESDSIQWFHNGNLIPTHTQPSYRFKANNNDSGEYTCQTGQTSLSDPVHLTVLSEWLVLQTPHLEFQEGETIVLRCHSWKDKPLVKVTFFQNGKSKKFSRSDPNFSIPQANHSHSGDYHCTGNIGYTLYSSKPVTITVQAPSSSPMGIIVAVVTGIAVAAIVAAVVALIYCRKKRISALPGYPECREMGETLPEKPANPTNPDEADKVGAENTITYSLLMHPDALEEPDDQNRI
# [4] = biological target: FcγRIIIaV158 (on cells bearing the labeled receptor, TR-FRET) (UniProt P08637); experiment: as above
# Chain of FcγRIIIaV158 (on cells bearing the labeled receptor, TR-FRET) (P08637 17-254 F176V): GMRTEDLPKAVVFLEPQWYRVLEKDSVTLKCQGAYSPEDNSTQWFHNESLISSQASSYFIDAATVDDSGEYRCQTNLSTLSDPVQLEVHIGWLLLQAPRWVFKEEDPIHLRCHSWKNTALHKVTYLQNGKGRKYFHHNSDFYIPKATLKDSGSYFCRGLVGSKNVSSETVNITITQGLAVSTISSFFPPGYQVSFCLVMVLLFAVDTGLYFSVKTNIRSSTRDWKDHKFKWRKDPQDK
# Chain of FcγRIIaH131 (cell surface CD32a, cells bearing the labeled receptor, TR-FRET) (P12318 34-317): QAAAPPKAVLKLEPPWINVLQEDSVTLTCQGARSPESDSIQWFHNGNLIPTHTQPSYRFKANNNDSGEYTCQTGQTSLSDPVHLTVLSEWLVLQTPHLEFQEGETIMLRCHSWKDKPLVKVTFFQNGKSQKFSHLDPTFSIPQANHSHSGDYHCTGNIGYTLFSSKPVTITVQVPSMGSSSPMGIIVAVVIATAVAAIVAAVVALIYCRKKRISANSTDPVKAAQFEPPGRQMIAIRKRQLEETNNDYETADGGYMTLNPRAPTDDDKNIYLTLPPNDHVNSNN
# Chain of human recombinant CD64 (Fc gamma receptor I), R&D Systems (human) (P12314 16-288 limits assumed): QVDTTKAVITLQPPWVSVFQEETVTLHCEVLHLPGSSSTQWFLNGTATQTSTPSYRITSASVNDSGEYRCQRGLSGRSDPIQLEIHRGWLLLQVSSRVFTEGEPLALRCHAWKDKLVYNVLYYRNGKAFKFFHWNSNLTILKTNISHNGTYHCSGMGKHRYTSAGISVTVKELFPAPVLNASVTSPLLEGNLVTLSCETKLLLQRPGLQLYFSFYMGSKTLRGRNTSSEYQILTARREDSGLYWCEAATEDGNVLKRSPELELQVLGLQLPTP
substance,measurement,setting,value
anti-CD20 mAb (CDRs from Gazyva (obinutuzumab)) (antibody),CD64 Valency by SPR,[1],1.5
same,IC50,[2],1270 nM
same,IC50,[3],3290 nM
same,IC50,[4],428 nM
